The text below walks through data of article PMC10786891, “Massively parallel profiling of RNA-targeting CRISPR-Cas13d”.

The labels stand for the following.
B1: target 1 insA 3' of 8 (mixed)
RNA 1: CACCCGUGCAAAAAUGCAGGGGUCUAAAACUGAGCGGAUAACCUCUCUAUGG
RNA 2: GGGAAUGGAUCCACAUCUACGAAUUCGUACCAUAGAGAGGUUAUACCGCUCACCGAGAUCGGAAGAGCACACGU
B2: target 1 insU 3' of 2 (mixed)
RNA 1: CACCCGUGCAAAAAUGCAGGGGUCUAAAACUGAGCGGAUAACCUCUCUAUGG
RNA 2: GGGAAUGGAUCCACAUCUACGAAUUCGUACCAUAGAGAGGUUAUCCGCUCUACCGAGAUCGGAAGAGCACACGU
B3: target 1 G5A,G12C (mixed)
RNA 1: CACCCGUGCAAAAAUGCAGGGGUCUAAAACUGAGCGGAUAACCUCUCUAUGG
RNA 2: GGGAAUGGAUCCACAUCUACGAAUUCGUACCAUAGAGAGCUUAUCCACUCACCGAGAUCGGAAGAGCACACGU
B4: target 1 insU 3' of 14,insU 3' of 4 (mixed)
RNA 1: CACCCGUGCAAAAAUGCAGGGGUCUAAAACUGAGCGGAUAACCUCUCUAUGG
RNA 2: GGGAAUGGAUCCACAUCUACGAAUUCGUACCAUAGAGAUGGUUAUCCGCUUCACCGAGAUCGGAAGAGCACACGU
B5: target 1 insA 3' of 22,insC 3' of 17 (mixed)
RNA 1: CACCCGUGCAAAAAUGCAGGGGUCUAAAACUGAGCGGAUAACCUCUCUAUGG
RNA 2: GGGAAUGGAUCCACAUCUACGAAUUCGUACACAUAGCAGAGGUUAUCCGCUCACCGAGAUCGGAAGAGCACACGU
B6: target 1 C6A,U11A (mixed)
RNA 1: CACCCGUGCAAAAAUGCAGGGGUCUAAAACUGAGCGGAUAACCUCUCUAUGG
RNA 2: GGGAAUGGAUCCACAUCUACGAAUUCGUACCAUAGAGAGGAUAUCAGCUCACCGAGAUCGGAAGAGCACACGU
B7: target 1 insA 3' of 15,insG 3' of 4 (mixed)
RNA 1: CACCCGUGCAAAAAUGCAGGGGUCUAAAACUGAGCGGAUAACCUCUCUAUGG
RNA 2: GGGAAUGGAUCCACAUCUACGAAUUCGUACCAUAGAGAAGGUUAUCCGCGUCACCGAGAUCGGAAGAGCACACGU
B8: target 1 insC 3' of 9,insG 3' of 1 (mixed)
RNA 1: CACCCGUGCAAAAAUGCAGGGGUCUAAAACUGAGCGGAUAACCUCUCUAUGG
RNA 2: GGGAAUGGAUCCACAUCUACGAAUUCGUACCAUAGAGAGGUUACUCCGCUCAGCCGAGAUCGGAAGAGCACACGU
B9: target 1 insC 3' of 22,insU 3' of 5 (mixed)
RNA 1: CACCCGUGCAAAAAUGCAGGGGUCUAAAACUGAGCGGAUAACCUCUCUAUGG
RNA 2: GGGAAUGGAUCCACAUCUACGAAUUCGUACCCAUAGAGAGGUUAUCCGUCUCACCGAGAUCGGAAGAGCACACGU
B10: target 1 del8,del14 (mixed)
RNA 1: CACCCGUGCAAAAAUGCAGGGGUCUAAAACUGAGCGGAUAACCUCUCUAUGG
RNA 2: GGGAAUGGAUCCACAUCUACGAAUUCGUACCAUAGAGGGUUACCGCUCACCGAGAUCGGAAGAGCACACGU
B11: target 1 insG 3' of 10,insA 3' of 8 (mixed)
RNA 1: CACCCGUGCAAAAAUGCAGGGGUCUAAAACUGAGCGGAUAACCUCUCUAUGG
RNA 2: GGGAAUGGAUCCACAUCUACGAAUUCGUACCAUAGAGAGGUUGAUACCGCUCACCGAGAUCGGAAGAGCACACGU
B12: target 1 insA 3' of 13,insU 3' of 1 (mixed)
RNA 1: CACCCGUGCAAAAAUGCAGGGGUCUAAAACUGAGCGGAUAACCUCUCUAUGG
RNA 2: GGGAAUGGAUCCACAUCUACGAAUUCGUACCAUAGAGAGAGUUAUCCGCUCAUCCGAGAUCGGAAGAGCACACGU
B13: target 1 insC 3' of 22,insA 3' of 4 (mixed)
RNA 1: CACCCGUGCAAAAAUGCAGGGGUCUAAAACUGAGCGGAUAACCUCUCUAUGG
RNA 2: GGGAAUGGAUCCACAUCUACGAAUUCGUACCCAUAGAGAGGUUAUCCGCAUCACCGAGAUCGGAAGAGCACACGU
B14: target 1 complement block 6-13 (mixed)
RNA 1: CACCCGUGCAAAAAUGCAGGGGUCUAAAACUGAGCGGAUAACCUCUCUAUGG
RNA 2: GGGAAUGGAUCCACAUCUACGAAUUCGUACCAUAGAGACCAAUAGGGCUCACCGAGAUCGGAAGAGCACACGU
B15: target 1 insG 3' of 8,insU 3' of 1 (mixed)
RNA 1: CACCCGUGCAAAAAUGCAGGGGUCUAAAACUGAGCGGAUAACCUCUCUAUGG
RNA 2: GGGAAUGGAUCCACAUCUACGAAUUCGUACCAUAGAGAGGUUAUGCCGCUCAUCCGAGAUCGGAAGAGCACACGU
B16: target 1 insG 3' of 11,insG 3' of 11 (mixed)
RNA 1: CACCCGUGCAAAAAUGCAGGGGUCUAAAACUGAGCGGAUAACCUCUCUAUGG
RNA 2: GGGAAUGGAUCCACAUCUACGAAUUCGUACCAUAGAGAGGUGGUAUCCGCUCACCGAGAUCGGAAGAGCACACGU
B17: target 1 insA 3' of 13,insG 3' of 1 (mixed)
RNA 1: CACCCGUGCAAAAAUGCAGGGGUCUAAAACUGAGCGGAUAACCUCUCUAUGG
RNA 2: GGGAAUGGAUCCACAUCUACGAAUUCGUACCAUAGAGAGAGUUAUCCGCUCAGCCGAGAUCGGAAGAGCACACGU
B18: target 1 insG 3' of 8,insG 3' of 1 (mixed)
RNA 1: CACCCGUGCAAAAAUGCAGGGGUCUAAAACUGAGCGGAUAACCUCUCUAUGG
RNA 2: GGGAAUGGAUCCACAUCUACGAAUUCGUACCAUAGAGAGGUUAUGCCGCUCAGCCGAGAUCGGAAGAGCACACGU
B19: target 1 A1G,G17A (mixed)
RNA 1: CACCCGUGCAAAAAUGCAGGGGUCUAAAACUGAGCGGAUAACCUCUCUAUGG
RNA 2: GGGAAUGGAUCCACAUCUACGAAUUCGUACCAUAAAGAGGUUAUCCGCUCGCCGAGAUCGGAAGAGCACACGU
B20: target 1 insC 3' of 10,insU 3' of 6 (mixed)
RNA 1: CACCCGUGCAAAAAUGCAGGGGUCUAAAACUGAGCGGAUAACCUCUCUAUGG
RNA 2: GGGAAUGGAUCCACAUCUACGAAUUCGUACCAUAGAGAGGUUCAUCCUGCUCACCGAGAUCGGAAGAGCACACGU
B21: target 1 insU 3' of 18,insU 3' of 9 (mixed)
RNA 1: CACCCGUGCAAAAAUGCAGGGGUCUAAAACUGAGCGGAUAACCUCUCUAUGG
RNA 2: GGGAAUGGAUCCACAUCUACGAAUUCGUACCAUAUGAGAGGUUAUUCCGCUCACCGAGAUCGGAAGAGCACACGU
B22: target 1 insU 3' of 22,insG 3' of 8 (mixed)
RNA 1: CACCCGUGCAAAAAUGCAGGGGUCUAAAACUGAGCGGAUAACCUCUCUAUGG
RNA 2: GGGAAUGGAUCCACAUCUACGAAUUCGUACUCAUAGAGAGGUUAUGCCGCUCACCGAGAUCGGAAGAGCACACGU
B23: target 1 G13A,G15A (mixed)
RNA 1: CACCCGUGCAAAAAUGCAGGGGUCUAAAACUGAGCGGAUAACCUCUCUAUGG
RNA 2: GGGAAUGGAUCCACAUCUACGAAUUCGUACCAUAGAAAAGUUAUCCGCUCACCGAGAUCGGAAGAGCACACGU

This series has as its target T1, EsCas13d, nuclease-dead (Eubacterium siraeum, UniProt B0MS50, R295A;H300A;R849A;H854A).
T1 sequence: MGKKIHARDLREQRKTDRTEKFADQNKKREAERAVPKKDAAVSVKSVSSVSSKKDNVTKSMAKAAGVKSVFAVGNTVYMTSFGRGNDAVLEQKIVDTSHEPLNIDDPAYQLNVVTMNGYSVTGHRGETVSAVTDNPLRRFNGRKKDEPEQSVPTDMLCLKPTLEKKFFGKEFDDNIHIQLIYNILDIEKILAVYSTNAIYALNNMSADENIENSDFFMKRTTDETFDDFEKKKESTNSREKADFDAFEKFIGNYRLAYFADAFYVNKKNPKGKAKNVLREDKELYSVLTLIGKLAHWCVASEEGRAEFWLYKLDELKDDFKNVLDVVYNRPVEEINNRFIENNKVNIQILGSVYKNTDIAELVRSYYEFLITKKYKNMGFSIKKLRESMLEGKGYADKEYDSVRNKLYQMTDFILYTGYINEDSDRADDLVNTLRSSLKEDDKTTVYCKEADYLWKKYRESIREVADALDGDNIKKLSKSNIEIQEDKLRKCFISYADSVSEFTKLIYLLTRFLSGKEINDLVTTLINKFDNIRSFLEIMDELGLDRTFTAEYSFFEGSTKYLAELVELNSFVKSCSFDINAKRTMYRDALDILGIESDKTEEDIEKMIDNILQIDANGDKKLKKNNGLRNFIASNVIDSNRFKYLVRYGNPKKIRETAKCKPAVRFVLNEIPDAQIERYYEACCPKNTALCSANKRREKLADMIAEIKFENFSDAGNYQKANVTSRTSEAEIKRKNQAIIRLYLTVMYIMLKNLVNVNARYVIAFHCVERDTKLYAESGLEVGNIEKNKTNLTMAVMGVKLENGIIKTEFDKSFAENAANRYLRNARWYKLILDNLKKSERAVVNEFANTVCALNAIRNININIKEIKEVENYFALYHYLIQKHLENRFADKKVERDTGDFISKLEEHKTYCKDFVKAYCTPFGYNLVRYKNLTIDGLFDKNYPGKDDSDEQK
The series can be described thus: crRNA (strand 1, pre-loaded); Mg2+; 40 mM Tris-HCl pH 7.5, 150 mM NaCl, 6 mM MgCl2, 1 mM DTT, 0.1% Tween-20, 0.2 mg/ml BSA; 25 C; 10 min per concentration, then washed. Conditions: tags: His6-TwinStrep-SUMO cleaved; N-terminal SNAP kept (SNAP-Surface 488); label: 3' end held by stalled T7 RNA polymerase.
A word on the Kd: it is the free concentration of one partner at which half of the binding sites on the other are occupied at equilibrium, for simple one-to-one binding. A high value points to a looser complex. B1: binding was put at a Kd of 15.7 ± 1 nM.
Then B2, with 9.7 ± 0.8 nM; and B3, with 13.5 ± 0.5 nM.
Then B4, with 63 ± 13 nM; and B5, with 47 ± 19 nM; and B6, with 28.1 ± 1.7 nM.
Then B7, with 6.4 ± 0.6 nM; and B8, with 12.2 ± 1.2 nM.
Consider B9, for which binding was characterised by a dissociation constant (Kd) of 24.3 ± 3.1 nM.
As to B10, the Kd was found to be 34.1 ± 2.7 nM.
Then B11, with 21.6 ± 1 nM; and B12, with 3.62 ± 0.33 nM.
B13 came in with a Kd of 15.9 ± 3.1 nM.
Molecule B14 showed a Kd of 92 ± 15 nM.
For B15 the value was 12.6 ± 0.9 nM; for B16, 86 ± 26 nM; for B17, 3.08 ± 0.21 nM.
Then B18, with 13.4 ± 0.7 nM; and B19, with 41 ± 8 nM.
B20: the Kd worked out at 46 ± 5 nM.
Then B21, with 49 ± 8 nM; and B22, with 49 ± 4 nM.
In the case of B23, the Kd is 10.3 ± 0.8 nM.
